Experimental findings from publication PMC6950786 (EBioMedicine, 2020) are described below.

In this assay the target is T1, GST-TNFAIP1(1–316) (UniProt Q13829 1-316).
T1 sequence (looked up): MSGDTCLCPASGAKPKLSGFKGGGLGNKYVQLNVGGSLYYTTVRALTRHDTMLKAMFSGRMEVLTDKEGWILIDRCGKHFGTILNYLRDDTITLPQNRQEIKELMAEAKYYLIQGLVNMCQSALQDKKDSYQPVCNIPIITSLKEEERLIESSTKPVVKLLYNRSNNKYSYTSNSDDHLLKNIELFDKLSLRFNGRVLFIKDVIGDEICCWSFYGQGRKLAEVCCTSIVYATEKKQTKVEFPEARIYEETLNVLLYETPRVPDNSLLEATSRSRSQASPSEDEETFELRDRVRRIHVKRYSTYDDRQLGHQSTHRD
The assay can be described thus: pull-down.

B1: His-CSNK2B (natural protein)
chain: not shown
Turning to B1, the binding result is listed as “binds”.
